According to patent publication US20180291082A1 (IMMATICS BIOTECHNOLOGIES, published 2018):

B1: HIFLRTTL (peptide)
peptide: HIFLRTTL
B2: LPMLKVLNL (peptide)
peptide: LPMLKVLNL
B3: LSYNKYLQL (peptide)
peptide: LSYNKYLQL
B4: EAKRHLLQV (peptide)
peptide: EAKRHLLQV

target: T1, human recombinant HLA-B*08:01 (human); assay: pMHC dissociation at 37 C (b2m on heavy chain); mean half-life grade (+ >2 h, ++ >4 h, +++ >6 h, ++++ >10 h)
T1 construct: Expressed in E. coli and purified; Assay done by ImmunAware
Experimental: The peptide-MHC stability for HLA-B*08:01 peptides was performed by ImmunAware (Copenhagen, Denmark). The data were obtained using a proximity based, homogenous, real-time assay to measure the dissociation of peptides from HLA class I molecules. First human recombinant HLA-B*08:01 and b2m were expressed in E. coli and purified in a series of liquid chromatography based steps (Ferre et al., 2003; Ostergaard et al., 2001). Afterwards, the stability of a peptide-MHC complex (pMHC) can be determined by measuring the amount of b2m associated with the MHC heavy chain over time at 37° C. (Harndahl et al., 2012). The stability of each pMHC, expressed as the half life of b2m associated with the respective heavy chain, was calculated by fitting the data to a one-phase dissociation equation.

Binder	mean half-life (T1/2) of peptide-MHC complex
B1	4 to 6 h
B2	2 to 4 h
B3	4 to 6 h
B4	4 to 6 h
